The record followed here is publication PMC10992476, “Efficient production of salvianic acid A from L-dihydroxyphenylalanine through a tri-enzyme cascade” (Bioresources and Bioprocessing, 2023).

First the molecules themselves.
B1: LaPPR (Lactobacillus sp. CGMCC 9967) (protein)
chain: MMKILNSFSLKPEQRQTLEAAGHTVIDADKLDDATAQQIDVVYGWNAAATRVNFDRLQFVQAMSAGVDYLPLAELAKHHVLLANTSGIHAEPIAEYVLGALFTISRGILPAIRADRDMWTLRQERPPMTLLKGKTAVIFGTGHIGSTIATKLQALGLHTIGVSAHGRPAAGFDQVMTDVATHEAAGRADVVINALPLTPDTKHFYDEAFFAAASKQPLFINIGRGPSVDMAALTQALKNKQISAAALDVVDPEPLPQDSPLWGMTNVLLTPHISGTVPQLRDKVFKIFNDNLKTLISSGQLASHQVDLTRGY
notes: homodimer
B2: LaPPR (Lactobacillus sp. CGMCC 9967; H143D/H89M/P256C) (protein)
chain: B1 chain with H89M, H143D, P256C
notes: homodimer
B3: LaPPR (Lactobacillus sp. CGMCC 9967; H143D/H89M) (protein)
chain: B1 chain with H89M, H143D
notes: homodimer
B4: LaPPR (Lactobacillus sp. CGMCC 9967; H89M) (protein)
chain: B1 chain with H89M
notes: homodimer
B5: LaPPR (Lactobacillus sp. CGMCC 9967; H143D) (protein)
chain: B1 chain with H143D
notes: homodimer

Substitutions are numbered along the chain they refer to. In names and notes the source's numbering stands.

As a reminder, the Km is the concentration of substrate that gives half-maximal velocity. A word on the kcat: it is the number of substrate molecules converted per active site and unit of time at saturation. One may read the kcat/Km as the turnover number divided by the Michaelis constant. What is called stoichiometry N is a count of units in the complex or per binding partner.

Substrate in one series: O=C(O)C(=O)Cc1ccc(O)c(O)c1
As to the kind of experiment: purified protein. It counts as biochemical, Lactobacillus sp. CGMCC 9967. Particulars: 2 mM NADH, Tris-HCl 50 mM pH 7.0, 30 °C.
Turning to B1, the Km was found to be 6.20 ± 0.15 mM, the kcat amounted to 1.21 ± 0.03 s⁻¹ and the kcat/Km stood at 200 M⁻¹ s⁻¹.
In the same order, the values of B2 are 2.52 ± 0.27 mM, 5.74 ± 0.24 s⁻¹ and 2050 M⁻¹ s⁻¹.
The like results for B3 were, in that order, 3.63 ± 0.17 mM, 2.35 ± 0.12 s⁻¹ and 650 M⁻¹ s⁻¹.
In the same order, the values of B4 are 5.74 ± 0.08 mM, 1.37 ± 0.06 s⁻¹ and 240 M⁻¹ s⁻¹.
As to B5, the Km worked out at 5.03 ± 0.14 mM, the kcat is 2.08 ± 0.11 s⁻¹ and the kcat/Km was found to be 410 M⁻¹ s⁻¹.

In the next series the target is phenylpyruvate reductase from Lactobacillus sp. CGMCC 9967 (LaPPR) (Lactobacillus sp. CGMCC 9967). The experiment in a line: crystal structure; apo-LaPPR wild type, sitting drop vapor diffusion, 20 °C, protein 28 mg/mL, 0.1 M citric acid pH 3.5, 14% w/v PEG 1000, 0.01 M beta-nicotinamide adenine dinucleotide; molecular replacement with PDB 3EVT.
Details: not given
For “phenylpyruvate reductase from Lactobacillus sp. CGMCC 9967 (LaPPR) (enzyme)”, the stoichiometry N stood at 2.
